In US20250288643A1 (FBD BIOLOGICS, published 2025):
Positions count from the first letter of the chain named. Read-outs that look alike come from different tables or passages of the source.

T1: mouse CD47 (mouse, UniProt Q61735 19-140, limits assumed)
T1 sequence (looked up): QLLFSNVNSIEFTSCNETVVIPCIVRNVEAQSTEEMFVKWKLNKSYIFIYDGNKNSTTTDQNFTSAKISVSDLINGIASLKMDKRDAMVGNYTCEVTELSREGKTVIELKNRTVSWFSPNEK

B1: 4RP13-3-11A (designed binder)
hSIRPα IgV domain mutant: EEELQVIQPDKSVSVAAGESAILHCTVTSLWPVGPIQWFRGAGPARELIYNQKAWPFPRVTTVSESTKRENMDFSISISNITPADAGTYYCVKFRKGSPDTEFKSGAGTELSVRAKPS
notes: tested as bacterial supernatant; also called S-2; hSIRPα-mt3 (IgV domain)
B2: 2RP-1-3E (designed binder)
hSIRPα IgV domain mutant: B1 hSIRPα IgV domain mutant with H24T, A54G, W55Q, P56N, E70F
notes: tested as bacterial supernatant; also called S-7; hSIRPα-mt9 (IgV domain)
B3: 4RP13-3-7B (designed binder)
hSIRPα IgV domain mutant: B1 hSIRPα IgV domain mutant with H24T, W31Y, A54R, W55Q, P56T, E70F
notes: tested as bacterial supernatant; also called S-28; hSIRPα-mt10 (IgV domain)
B4: 4RP13-4-5C (designed binder)
hSIRPα IgV domain mutant: B1 hSIRPα IgV domain mutant with H24N, W31I, A54H, W55Q, P56T, S66Q, M72R
notes: tested as bacterial supernatant; also called S-21; hSIRPα-mt5 (IgV domain)
B5: 4RP13-1-2G (designed binder)
hSIRPα IgV domain mutant: B1 hSIRPα IgV domain mutant with H24R, W55F, P56I, E70G
notes: tested as bacterial supernatant; also called S-5; hSIRPα-mt4 (IgV domain)
B6: 2R-1-10B (designed binder)
hSIRPα IgV domain mutant: B1 hSIRPα IgV domain mutant with W31I, A54N, W55L, P56I, T67G
notes: tested as bacterial supernatant; also called hSIRPα-mt6 (IgV domain)
B7: 4RP13-5-6G (designed binder)
hSIRPα IgV domain mutant: B1 hSIRPα IgV domain mutant with H24R, W31T, W55K, P56Q, D73I
notes: tested as bacterial supernatant; also called hSIRPα-mt15 (IgV domain)
B8: 4RP6-1-10A (designed binder)
hSIRPα IgV domain mutant: B1 hSIRPα IgV domain mutant with W31L, A54D, W55F, P56L, M72R
notes: tested as bacterial supernatant; also called S-16; hSIRPα-mt13 (IgV domain)
B9: 4RP13-3-10B (designed binder)
hSIRPα IgV domain mutant: B1 hSIRPα IgV domain mutant with W31Y, A54G, W55R, P56R, E70A
notes: tested as bacterial supernatant; also called S-26; hSIRPα-mt12 (IgV domain)
B10: 4RP13-1-7A (designed binder)
hSIRPα IgV domain mutant: B1 hSIRPα IgV domain mutant with W31K, A54R, W55D, P56T, M72R
notes: tested as bacterial supernatant; also called S-19; hSIRPα-mt8 (IgV domain)
B11: 2R-1-4B (designed binder)
hSIRPα IgV domain mutant: B1 hSIRPα IgV domain mutant with W31A, A54L, W55D, P56S, N71S
notes: tested as bacterial supernatant; also called hSIRPα-mt14 (IgV domain)
B12: 4RP13-3-4D (designed binder)
hSIRPα IgV domain mutant: B1 hSIRPα IgV domain mutant with W31L, A54S, W55K, P56V, E70R
notes: tested as bacterial supernatant; also called S-11; hSIRPα-mt11 (IgV domain)
B13: 2R-1-7B (designed binder)
hSIRPα IgV domain mutant: B1 hSIRPα IgV domain mutant with T26I, W31I, A54I, W55L, P56T, M72Y
notes: tested as bacterial supernatant; also called hSIRPα-mt7 (IgV domain)

What was measured:
human CD47 (hCD47) [1] = biological target: T2, human CD47 (hCD47) (human, UniProt Q08722 19-139, limits assumed); assay: blocking ELISA, coated hCD47 ECD Fc, supernatant + biotin-SIRPα ECD His
Experimental: (§1) 150 μl of the collected supernatant and 20 μl biotin-labeled SIRPα ECD His protein (final concentration: 2.5 μg/ml) were added to the ELISA plates and incubated at 25° C. for 1 hour. After the incubation, avidin HRP (BioLegend, Cat #: 79004) with a dilution ratio of 1:1000 was added to the plate, and TMB was added for color development. The absorbance value at 450 nm was measured using a Varioskan™ LUX plate reader.

human CD47 (hCD47) [2] = biological target: T2, human CD47 (hCD47); assay: ELISA, coated hCD47 ECD Fc, supernatant, anti-c-Myc HRP
Experimental: (§2) 30 μl of the collected supernatant was added to the ELISA plates and incubated at 25° C. for 1 hour. After the incubation, goat anti-c-Myc HRP with a dilution ratio of 1:10000 was added to the plate, and TMB was added for color development. The absorbance value at 450 nm was measured using a Varioskan™ LUX plate reader.

mouse CD47 = biological target: T1, mouse CD47; assay: ELISA, coated mouse CD47 ECD Fc, supernatant, anti-c-Myc HRP
Experimental: 100 μl of the collected supernatant was added to the ELISA plates and incubated at 25° C. for 1 hour. After the incubation, goat anti-c-Myc HRP with a dilution ratio of 1:10000 was added to the plate, and TMB was added for color development. The absorbance value at 450 nm was measured using a Varioskan™ LUX plate reader.

human CD47 (hCD47) [3] = biological target: T2, human CD47 (hCD47); assay: hCD47 binding OD over expression OD
Experimental: as §2

human CD47 (hCD47) [4] = biological target: T2, human CD47 (hCD47); assay: ELISA, coated hCD47 ECD Fc, supernatant, anti-c-Myc HRP; remark: listed apart in the source
Experimental: as §2

human CD47 (hCD47) [5] = biological target: T2, human CD47 (hCD47); assay: blocking ELISA, coated hCD47 ECD Fc, supernatant + biotin-SIRPα ECD His; remark: listed apart in the source
Experimental: as §1

human CD47 (hCD47) [6] = biological target: T2, human CD47 (hCD47); assay: hCD47 binding OD over expression OD; remark: listed apart in the source
Experimental: as §2

T2 sequence (Q08722 19-139 limits assumed): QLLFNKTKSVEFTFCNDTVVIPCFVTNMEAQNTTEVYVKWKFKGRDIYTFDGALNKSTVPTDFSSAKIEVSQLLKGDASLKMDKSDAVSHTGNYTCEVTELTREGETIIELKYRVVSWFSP

Row | Binder | Blocking (OD) (human CD47 (hCD47) [1]) | Blocking ability (%) (human CD47 (hCD47) [1]) | hCD47 binding (OD) (human CD47 (hCD47) [2]) | mCD47 binding (OD) (mouse CD47) | hCD47 binding (B/E) (human CD47 (hCD47) [3]) | hCD47 binding (OD) (human CD47 (hCD47) [4]) | Blocking (OD) (human CD47 (hCD47) [5]) | Blocking ability (%) (human CD47 (hCD47) [5]) | hCD47 binding (B/E) (human CD47 (hCD47) [6])
1 | B1 | 0.319 | 93.3 | 1.67 | 0.348 | 1.53 |  |  |  | 
2 | B2 | 0.131 | 99.9 | 1.72 |  | 1.61 |  |  |  | 
3 | B3 | 0.332 | 92.4 | 1.49 |  | 1.25 | 1.49 | 0.332 | 92.4 | 1.25
4 | B4 | 0.21 | 96.3 | 1.86 |  | 1.65 |  |  |  | 
5 | B5 | 0.194 | 96.9 | 1.94 | 0.412 | 2.27 |  |  |  | 
6 | B6 |  |  |  |  |  | 0.51 | 1.37 | 27.2 | 0.46
7 | B7 |  |  |  |  |  | 1.65 | 1.11 | 46.3 | 1.01
8 | B8 | 0.45 | 80.1 | 1.87 | 0.41 | 2.89 | 1.87 | 0.45 | 80.1 | 2.89
9 | B9 | 0.299 | 94.7 | 1.65 |  | 1.33 |  |  |  | 
10 | B10 | 0.215 | 95.8 | 1.9 | 0.293 | 2.44 |  |  |  | 
11 | B11 |  |  |  |  |  | 0.946 | 1.36 | 27.9 | 0.77
12 | B12 | 0.229 | 99.8 | 1.79 |  | 1.7 |  |  |  | 
13 | B13 |  |  |  |  |  | 0.687 | 1.43 | 23.3 | 0.78
